Laboratory results from CN114349858A (YOUMALI WUHAN BIOTECHNOLOGY CO LTD, dated 2022).

Biological target: T1, 重组人IL-10蛋白 (human, UniProt P22301 19-178)
T1 construct: The construct used in the Biacore and ELISA assays is only called recombinant human IL-10 protein; also called 人白介素-10; 重组表达的人白介素-10
Test: SPR, Biacore 3000; antibody immobilised on CM5 chip, recombinant human IL-10 at 20, 12.3, 4.1, 1.37 and 0.46 nM

T1 sequence (P22301 19-178 limits assumed): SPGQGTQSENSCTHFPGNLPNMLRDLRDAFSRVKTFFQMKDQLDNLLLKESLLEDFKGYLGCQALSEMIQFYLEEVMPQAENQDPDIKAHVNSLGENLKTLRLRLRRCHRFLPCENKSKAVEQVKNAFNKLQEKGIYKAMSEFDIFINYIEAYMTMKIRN

Kd: 9.68 pM
B1: 抗人IL-10兔单克隆抗体B (antibody, V domains shown)
VH: QSLEESGGDLVKPGASLTLTCTASGFSFSGSYGICWVRQAPGKGLEWIACIVTSSGTTYYASWAKGRFTISKTSSTTVTLQMTSLTAADTATYFCARDLLAYYTGNLWGPGTLVTVSS
VL: ALVMTQTPASVEAAVGGTVTINCQASQSISNELSWYQQKPGQRPELLIYGASRLESGVPSRFSGSGSGTEFTLTISDLECDDAATYYCQSAYYSSSVDIYNTFGGGTEVVVKG
notes: Used biotin-labelled as the detection antibody in the sandwich ELISA; also called B抗体; 兔抗人IL-10单克隆抗体B
